Measurements as given in patent US20230295308A1, “ANTAGONISTIC BIPARATOPIC ANTIBODIES THAT SPECIFICALLY BIND FIBROBLAST GROWTH FACTOR RECEPTOR 2 AND METHODS OF USING SAME” (The Broad Institute, Inc., priority 2020, published 2023).

How the values were obtained:
[1] = target: T1, FGFR2 receptor dimerization (Homo sapiens, UniProt P21802); experiment: NANOBIT assay of FGFR2 dimerization; assay type: cell-based; conditions: increasing antibody concentrations, cells stably expressing FGFR2
T1 construct: expressed in transfected cells
T1 sequence (P21802 22-822 isoform P21802-3 limits assumed): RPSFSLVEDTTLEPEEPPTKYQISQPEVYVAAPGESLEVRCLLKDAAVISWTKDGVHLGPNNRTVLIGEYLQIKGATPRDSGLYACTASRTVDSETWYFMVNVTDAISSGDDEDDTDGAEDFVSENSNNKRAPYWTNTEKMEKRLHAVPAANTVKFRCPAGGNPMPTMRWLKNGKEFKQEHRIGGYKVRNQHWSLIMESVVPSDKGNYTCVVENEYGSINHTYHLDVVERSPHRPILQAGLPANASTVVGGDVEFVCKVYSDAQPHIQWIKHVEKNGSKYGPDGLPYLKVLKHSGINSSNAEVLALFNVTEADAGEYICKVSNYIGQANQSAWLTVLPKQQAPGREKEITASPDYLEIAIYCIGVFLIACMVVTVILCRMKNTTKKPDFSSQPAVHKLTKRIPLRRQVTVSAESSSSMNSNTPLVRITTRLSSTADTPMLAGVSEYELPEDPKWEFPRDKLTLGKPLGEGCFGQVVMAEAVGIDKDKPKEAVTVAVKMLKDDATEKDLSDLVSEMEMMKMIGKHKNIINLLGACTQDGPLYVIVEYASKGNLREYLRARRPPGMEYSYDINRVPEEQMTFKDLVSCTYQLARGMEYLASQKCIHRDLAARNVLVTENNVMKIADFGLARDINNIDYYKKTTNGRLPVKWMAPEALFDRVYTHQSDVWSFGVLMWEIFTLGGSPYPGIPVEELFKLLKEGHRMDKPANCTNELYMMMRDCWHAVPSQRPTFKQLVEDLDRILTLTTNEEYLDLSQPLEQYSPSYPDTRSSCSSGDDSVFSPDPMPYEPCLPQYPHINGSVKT
T1 sequence (P21802 22-822 isoform P21802-3 limits assumed): as above
Text: (§1) FIG. 16A-16F provide schematic illustrations, blots and graphs related to the development of a NANOBIT® assay to measure FGFR2 dimerization. Such an assay is used to screen biparatopic screening for their ability to disrupt FGFR2 dimerization. […] The protein interactions bring the subunits into close proximity to form a functional enzyme that generates a bright, luminescent signal. (FIG. 16B). […] FIG. 16E presents a graph of the results of the NANOBIT® assay using NANOBIT® constructs with or without FGF10 ligand. […] As shown in the graph on the left side of FIG. 16F, certain of the antibodies A-F inhibited the growth of BaF3 cells stably overexpressing FGFR2 (FGFR2IIIb). Antibody D was used in the NANOBIT® assay (graph on the right of FIG. 16F). In the rightmost graph in FIG. 16F, the fold luminescence resulting from FGFR2 WT (wild type) in the assay is represented by the left bar in each set of three bars; the fold luminescence resulting from FGFR2+FGF10 ligand in the assay is represented by the middle bar in each set of three bars; and the fold luminescence resulting from +/−FGF10 ligand difference in the assay is represented by the right bar in each set of three bars shown in FIG. 16F.
A NANOBIT® assay was developed to measure FGFR2 dimerization in cells, and in particular to screen for biparatopic antibodies that were able to disrupt FGFR2 dimerization. […]

[2] = target: FGFR2b alpha IIIb antigen (UniProt P21802); experiment: SPR (Biacore), antibody immobilized, FGFR2b alpha IIIb in flow
[3] = tested on: cells stably overexpressing FGFR2 (FGFR2IIIb); experiment: growth of cells stably overexpressing FGFR2 (FGFR2IIIb) (FIG. 16F left); assay type: cell-based
Text: as §1
Different expression constructs (e.g., up to eight) were made encoding LgBiT and SmBiT fused to the N and C termini of protein:protein pairs. […]

FGFR2b alpha IIIb = FGFR2b alpha IIIb (Homo sapiens, UniProt P21802); experiment: Surface Plasmon Resonance (SPR) binding; conditions: FGFR2b alpha IIIb antigen
Sequence of FGFR2b alpha IIIb (P21802 22-378 isoform P21802-3): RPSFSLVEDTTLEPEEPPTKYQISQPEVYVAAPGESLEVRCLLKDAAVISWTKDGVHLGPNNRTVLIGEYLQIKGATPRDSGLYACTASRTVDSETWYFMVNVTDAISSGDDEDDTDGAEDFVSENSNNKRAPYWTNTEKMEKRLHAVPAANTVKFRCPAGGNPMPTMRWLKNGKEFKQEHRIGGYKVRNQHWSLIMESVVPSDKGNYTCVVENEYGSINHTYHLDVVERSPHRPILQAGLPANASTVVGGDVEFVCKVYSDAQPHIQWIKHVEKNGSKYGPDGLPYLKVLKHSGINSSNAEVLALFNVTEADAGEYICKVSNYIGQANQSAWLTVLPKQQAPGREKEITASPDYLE
Text: FIGS. 17A-17C provide a schematic and tabular data related to assessments made to compare the avidity of biparatopic antibodies to that of their parental (bivalent monospecific) antibodies.
Surface Plasmon Resonance (SPR) as known in the art was used to determine the binding affinities of biparatopic antibodies. The SPR-based binding method involves immobilization of a ligand (antibody) on the surface of a sensor chip. The binding partner of interest or an analyte (FGFR2 ECD) flow through the flow channel. Different concentrations of an analyte flow over the ligand, and the interactions of ligand-analyte can be characterized. The SPR signal originates from changes in the refractive index of the […] at the surface of the sensor chip. The increase in mass associated with a binding event causes a proportional increase in the refractive index, which is observed as a change in response-resonance signal. In brief, for the experiments using the antibodies described herein, the SPR assay was carried out by immobilizing antibodies (used as […]) at a concentration ranging from 1-1000 nM and flow-through FGFR2b alpha IIIb antigen (used as […]). The antibody kinetic data for the interaction with FGFR2b alpha IIb antigen were fitted to the 2-state and 1-1 binding models using Biocore software. The mean and standard deviation KD values are derived from at least three independent runs.
Using SPR, the kinetics of 6 monospecific and 13 biparatopic antibodies for binding to a single antigen, FGFR2b alpha IIb, was measured so as to compare avidity of the biparatopic antibodies to their parental antibodies. Without wishing to be bound by theory, it was expected that the biparatopic antibodies would bind to the FGFR2 antigen more tightly than their parental antibodies and that the tighter binding biparatopic antibodies among the antibodies that were assessed would be more efficient in blocking FGFR2 dimerization (FIG. 17A), thereby leading to inhibition or blocking of constitutive FGFR2 signaling and/or oncogenic transformation. […]

- blocking of FGF-induced dimerization of the FGFR2 receptor [1]: blocks
- Binding Stoichiometry [2]: 1.9
- Kd (FGFR2b alpha IIIb): 990 pM
B1: 2B 1.3.12 (antibody, V domains shown)
VH: EVQLVESGGGLVQPGGSLRLSCAASGFPFTSTGISWVRQAPGKGLEWVGRTHLGDGSTNYADSVKGRFTISADTSKNTAYLQMNSLRAEDTAVYYCARTYGIYDTYDMYTEYVMDYWGQGTLVTVSS
VL: DIQMTQSPSSLSASVGDRVTITCRASQDVDTSLAWYKQKPGKAPKLLIYSASFLYSGVPSRFSGSGSGTDFTLTISSLQPEDFATYYCQQSTGHPQTFGQGTKVEIK
notes: the duobody scheme implies IgG1 with K409R or F405L; also called Antibody D; GE
- growth inhibition of cells stably overexpressing FGFR2 (FGFR2IIIb) [3]: most pronounced effect
